The values that follow come from PMC11275989, “Molecular Basis for the Calcium-Dependent Activation of the Ribonuclease EndoU”.

This series addresses T1, EndoU catalytic domain (human, UniProt P21128 135-410).
T1 sequence: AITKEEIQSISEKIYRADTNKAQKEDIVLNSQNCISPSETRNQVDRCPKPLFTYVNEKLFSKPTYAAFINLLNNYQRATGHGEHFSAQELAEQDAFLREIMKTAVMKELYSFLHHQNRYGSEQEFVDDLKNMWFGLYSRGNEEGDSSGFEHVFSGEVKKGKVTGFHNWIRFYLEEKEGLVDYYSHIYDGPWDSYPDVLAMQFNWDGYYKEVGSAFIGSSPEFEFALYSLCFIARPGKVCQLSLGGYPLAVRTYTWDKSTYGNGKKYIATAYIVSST
The experiment in a line: NMR; Ca2+ (calcium-activated EndoU); NMR: 10 mM Tris pH 7, 50 mM NaCl, 1 mM TCEP, 10% D2O, 35 C; EndoU 350 uM (Fig. 4). The settings on record: protein: recombinant; tags: GB1-His6 removed by TEV; residual N-terminal GGSEFA; single strand.

On to UUUUUU (XNA, 2'-F) [2'F (U)6 RNA], for which the binding result is “binds”.

Turning to AAGUCC (XNA, 2'-F at all nucleotides (non-cleavable)) [2'-fluorinated RNA AAGUCC], the binding result is “binds”.
